Data on 58 variants can be found in the FLAb antibody collection (doi:10.7554/elife.23156).

Where only a bound is given, the exact number is not on record here.

B1: scFv; the commonest letter at each place (parent)
chain 1: EVKLDETGGGLVQPGRPMKLSCVASGFTFSDYWMNWVRQSPEKGLEWVAQIRNKPYNYETYYSDSVKGRFTISRDDSKSSVYLQMNNLRVEDMGIYYCTGSYYGMDYWGQGTSVTVS
chain 2: DVVMTQTPLSLPVSLGDQASISCRSSQSLVHSNGNTYLRWYLQKPGQSPKVLIYKVSNRFSGVPDRFSGSGSGTDFTLKISRVEAEDLGVYFCSQSTHVPWTFGGGTKLEIK

Variants of B1 are the subject of data set [1]. Kind of data set: Kd (Tite-Seq). The following applies: with fluorescein; format: scFv 4-4-20, heavy + light.
In data set [2] the parent is B1. Kind of data set: yeast surface expression (ratio to wild type); higher = more expressed. Conditions: format: scFv 4-4-20, heavy + light.

As a reminder, the Kd is the equilibrium constant for the complex coming apart. As to chain 1 Y32I W36P, the equilibrium dissociation constant (Kd) in data set [1] is 0.0391 µM. Besides, in data set [2], the yeast surface expression was found to be 0.723.

For chain 1 S101D M105T, the Kd in data set [1] is no less than 10 µM. Further, the yeast surface expression in data set [2] is 0.799.

Turning to chain 1 T28L D31L, in data set [1], the Kd turned out to be 0.0221 µM. For the same variant, the yeast surface expression in data set [2] came to 0.425.

On to chain 1 S101D, for which the Kd in data set [1] was no less than 10 µM. The yeast surface expression in data set [2] turned out to be 0.888.

chain 1 S101W: in data set [1], the dissociation constant (Kd) was no less than 10 µM. Further, the yeast surface expression in data set [2] was 0.618.

As to chain 1 G100P G109A, in data set [1], the Kd was no less than 10 µM. Besides, the yeast surface expression in data set [2] was determined as 0.3.

For chain 1 G104N W108M G109E, the Kd in data set [1] was no less than 10 µM. In addition, in data set [2], the yeast surface expression was 0.217.

In the case of chain 1 F29N V37D, the Kd in data set [1] is no less than 10 µM. For the same variant, the yeast surface expression in data set [2] worked out at 0.229.

For the variant chain 1 F29N V37T, in data set [1], the Kd is no less than 10 µM. Besides, in data set [2], the yeast surface expression stood at 0.668.

Consider chain 1 Y32E V37Y, for which the Kd in data set [1] is no less than 10 µM. In data set [2], the yeast surface expression is 0.806.

For chain 1 W36M V37S, the Kd in data set [1] was no less than 10 µM. Also, in data set [2], the yeast surface expression amounted to 0.415.

Regarding chain 1 W36M V37W, the Kd in data set [1] is no less than 10 µM. The yeast surface expression in data set [2] was 0.496.

chain 1 Y102H G109P: the Kd in data set [1] is no less than 10 µM. In addition, in data set [2], the yeast surface expression was 0.281.

For chain 1 S101D W108Y, the Kd in data set [1] was no less than 10 µM. Moreover, the yeast surface expression in data set [2] was determined as 0.608.

Turning to chain 1 G100V G104A, the Kd in data set [1] is no less than 10 µM. In data set [2], the yeast surface expression turned out to be 0.747.

Regarding chain 1 G100V G104D, the Kd in data set [1] was no less than 10 µM. For the same variant, in data set [2], the yeast surface expression turned out to be 0.777.

As to chain 1 Y102D Y107K G109H, the Kd in data set [1] is no less than 10 µM. The yeast surface expression in data set [2] came to 0.302.

Consider chain 1 M105R G109W, for which the Kd in data set [1] is no less than 10 µM. The yeast surface expression in data set [2] is 0.232.

As for chain 1 T28V S30Q, the Kd in data set [1] was found to be 0.000989 µM. Further, in data set [2], the yeast surface expression is 1.1.

chain 1 F29N N35A: the Kd in data set [1] is no less than 10 µM. For the same variant, the yeast surface expression in data set [2] came to 0.862.

chain 1 F29C W36V: the Kd in data set [1] is no less than 10 µM. Besides, the yeast surface expression in data set [2] was 0.635.

With chain 1 F29I W33H M34P, the Kd in data set [1] was no less than 10 µM. Further, the yeast surface expression in data set [2] turned out to be 0.518.

Consider chain 1 G104R, for which the Kd in data set [1] is no less than 10 µM. Moreover, in data set [2], the yeast surface expression is 0.626.

For chain 1 G104H, the Kd in data set [1] is no less than 10 µM. Further, in data set [2], the yeast surface expression stood at 0.716.

As to chain 1 T28H S30G, the Kd in data set [1] turned out to be 0.00122 µM. Further, in data set [2], the yeast surface expression amounted to 1.04.

Consider chain 1 Y32H V37T, for which, in data set [1], the Kd was no less than 10 µM. Further, the yeast surface expression in data set [2] was found to be 0.874.

For the variant chain 1 S101E G104K M105C, the Kd in data set [1] is no less than 10 µM. Further, in data set [2], the yeast surface expression came out at 0.346.

Take chain 1 S30P: in data set [1], the Kd was 0.00101 µM. Besides, the yeast surface expression in data set [2] was 1.06.

Turning to chain 1 S30N, the Kd in data set [1] was 0.00122 µM. In data set [2], the yeast surface expression was 0.889.

Turning to chain 1 F29T Y32R, the equilibrium dissociation constant (Kd) in data set [1] was 1.14 µM. Further, the yeast surface expression in data set [2] worked out at 1.06.

Consider chain 1 Y102K Y107H, for which the Kd in data set [1] is 0.0233 µM. Moreover, the yeast surface expression in data set [2] was determined as 0.909.

For the variant chain 1 Y32G W33N, in data set [1], the Kd was no less than 10 µM. For the same variant, the yeast surface expression in data set [2] was 0.799.

In the case of chain 1 G100D, the Kd in data set [1] was no less than 10 µM. The yeast surface expression in data set [2] stood at 0.453.

Turning to chain 1 G100Q, the Kd in data set [1] is no less than 10 µM. For the same variant, in data set [2], the yeast surface expression came to 0.476.

Turning to chain 1 G100R, the Kd in data set [1] was no less than 10 µM. Besides, the yeast surface expression in data set [2] is 0.624.

For chain 1 G100E, the Kd in data set [1] was no less than 10 µM. In addition, the yeast surface expression in data set [2] came out at 0.388.

Take chain 1 Y102A G109K: the Kd in data set [1] was no less than 10 µM. The yeast surface expression in data set [2] came to 0.279.

Turning to chain 1 S30R N35R, in data set [1], the Kd was no less than 10 µM. Besides, the yeast surface expression in data set [2] was determined as 0.535.

As for chain 1 S30R N35F, the Kd in data set [1] is no less than 10 µM. Also, the yeast surface expression in data set [2] worked out at 0.413.

Regarding chain 1 Y32G N35V, in data set [1], the Kd was no less than 10 µM. In addition, in data set [2], the yeast surface expression turned out to be 0.513.

Regarding chain 1 T28W S30F, the Kd in data set [1] was determined as 0.00606 µM. The yeast surface expression in data set [2] is 0.69.

For the variant chain 1 T28W S30A, the Kd in data set [1] worked out at 0.00444 µM. Further, the yeast surface expression in data set [2] is 0.868.

Regarding chain 1 S101W Y107W, the Kd in data set [1] was no less than 10 µM. For the same variant, in data set [2], the yeast surface expression worked out at 0.386.

Consider chain 1 S101E W108G, for which the dissociation constant Kd in data set [1] was no less than 10 µM. Further, the yeast surface expression in data set [2] worked out at 0.368.

With chain 1 Y107G G109V, the Kd in data set [1] is no less than 10 µM. Moreover, the yeast surface expression in data set [2] turned out to be 0.273.

On to chain 1 N35L V37P, for which the Kd in data set [1] is no less than 10 µM. In addition, the yeast surface expression in data set [2] amounted to 0.67.

Consider chain 1 M105Y W108N, for which the Kd in data set [1] is no less than 10 µM. Besides, in data set [2], the yeast surface expression is 0.301.

As to chain 1 W33A V37W, in data set [1], the Kd is no less than 10 µM. The yeast surface expression in data set [2] stood at 0.625.

Consider chain 1 W33T N35Q, for which the Kd in data set [1] was no less than 10 µM. For the same variant, the yeast surface expression in data set [2] turned out to be 0.887.

For the variant chain 1 M105N D106P, the dissociation constant Kd in data set [1] was no less than 10 µM. In addition, the yeast surface expression in data set [2] was 0.2.

With chain 1 G104N D106W, the Kd in data set [1] was no less than 10 µM. Besides, the yeast surface expression in data set [2] was 0.316.

Consider chain 1 M34W N35C, for which the Kd in data set [1] is no less than 10 µM. Besides, the yeast surface expression in data set [2] came to 0.721.

For chain 1 Y102P M105S, the Kd in data set [1] was no less than 10 µM. Moreover, the yeast surface expression in data set [2] stood at 0.416.

With chain 1 Y102P M105K, in data set [1], the Kd is no less than 10 µM. The yeast surface expression in data set [2] worked out at 0.473.

With chain 1 Y32A W33C, the Kd in data set [1] is no less than 10 µM. For the same variant, the yeast surface expression in data set [2] stood at 0.924.

Consider chain 1 G100E D106H, for which the Kd in data set [1] was no less than 10 µM. Moreover, the yeast surface expression in data set [2] came to 0.289.

For the variant chain 1 F29I M34T, the Kd in data set [1] is no less than 10 µM. Moreover, the yeast surface expression in data set [2] was determined as 0.54.

As for chain 1 Y102N W108D, in data set [1], the Kd is no less than 10 µM. For the same variant, the yeast surface expression in data set [2] came out at 0.259.
